Measured values published in patent US20030068675, “Position dependent recognition of GNN nucleotide triplets by zinc fingers” (published 2003).
Changes are numbered by the printed parent chain.

Legend:
Experiment in all cases: EMSA
Details in all cases: tags: MBP fusion
ZFP SBS#1414 = molecular target: T1, ZFP SBS#1414 (synthetic)
T1 chain: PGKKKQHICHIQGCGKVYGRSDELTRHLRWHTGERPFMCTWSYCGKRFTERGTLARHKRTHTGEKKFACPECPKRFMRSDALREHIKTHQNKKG
Outline: (§1)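 Purified ZFP was titrated against labeled double-stranded target (1 nM or lower, at least 10-fold below expected Kd) carrying the natural binding site with flanks. Binding buffer was 10 mM Tris pH 7.5, 100 mM KCl, 1 mM MgCl2, 0.1 mM ZnCl2, 5 mM DTT, 10% glycerol, 0.02% BSA, with equilibration for at least 45 min. Bound and free target were separated on a 10% polyacrylamide gel.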

ZFP SBS#1413 = molecular target: T2, ZFP SBS#1413 (synthetic)
T2 chain: T1 chain with E50D, G52S, T53D, A55T
Outline: as §1

ZFP SBS#1398 = molecular target: T3, ZFP SBS#1398 (synthetic)
T3 chain: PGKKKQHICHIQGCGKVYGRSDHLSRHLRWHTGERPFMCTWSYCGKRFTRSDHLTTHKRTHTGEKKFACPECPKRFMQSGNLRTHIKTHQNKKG
Outline: as §1

ZFP SBS#1435 = molecular target: T4, ZFP SBS#1435 (synthetic)
T4 chain: T3 chain with R83T, T84K
Outline: as §1

ZFP SBS#1409 = molecular target: T5, ZFP SBS#1409 (synthetic)
T5 chain: T1 chain with E23H, T25S, E50Q, R51S, T53S, A55T, A81D
Outline: as §1

ZFP SBS#1408 = molecular target: T6, ZFP SBS#1408 (synthetic)
T6 chain: T1 chain with E23H, T25S, E50Q, R51S, T53S, A55T, A81E
Outline: as §1

ZFP SBS#1402 = molecular target: T7, ZFP SBS#1402 (synthetic)
T7 chain: T1 chain with S21G, E23A, R26S, E50R, R51S, G52D, T53N
Outline: as §1

ZFP SBS#1418 = molecular target: T8, ZFP SBS#1418 (synthetic)
T8 chain: T1 chain with S21A, E23A, T25M, R26V, E50R, R51S, G52D, T53N
Outline: as §1

ZFP SBS#1439 = ZFP SBS#1439 (synthetic)
Outline: as §1

ZFP SBS#1440 = ZFP SBS#1440 (synthetic)
Outline: as §1

ZFP SBS#1401 = molecular target: T9, ZFP SBS#1401 (synthetic)
T9 chain: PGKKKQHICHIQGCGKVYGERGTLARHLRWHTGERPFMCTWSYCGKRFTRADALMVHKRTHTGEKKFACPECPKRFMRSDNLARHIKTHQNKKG
Outline: as §1

ZFP SBS#1417 = molecular target: T10, ZFP SBS#1417 (synthetic)
T10 chain: T9 chain with A51G, M55T, V56S
Outline: as §1

ZFP SBS#1441 = ZFP SBS#1441 (synthetic)
Outline: as §1

ZFP SBS#1407 = ZFP SBS#1407 (synthetic)
Outline: as §1

ZFP SBS#1410 = molecular target: T11, ZFP SBS#1410 (synthetic, UniProt P08047)
T11 chain: T1 chain with E50R, R51S, G52D, T53E, A55Q, A81E
Outline: as §1

ZFP SBS#1416 = molecular target: T12, ZFP SBS#1416 (synthetic)
T12 chain: T1 chain with E23N, T25A, A81E, R83Q, E84R
Outline: as §1

ZFP SBS#1415 = molecular target: T13, ZFP SBS#1415 (synthetic)
T13 chain: T1 chain with E23N, T25A, E50D, G52S, T53D, A55T, A81E, R83Q, E84R
Outline: as §1

ZFP SBS#1411 = ZFP SBS#1411 (synthetic)
Outline: as §1

ZFP SBS#1429 = ZFP SBS#1429 (synthetic)
Outline: as §1

ZFP SBS#1428 = ZFP SBS#1428 (synthetic)
Outline: as §1

ZFP SBS#1404 = molecular target: T14, ZFP SBS#1404 (synthetic)
T14 chain: T3 chain with R50Q, D52G, H53S, T56R, Q78R, G80D, R83A, T84R
Outline: as §1

ZFP SBS#1405 = molecular target: T15, ZFP SBS#1405 (synthetic)
T15 chain: T3 chain with R50Q, D52G, H53D, T56R, Q78R, G80D, R83A, T84R
Outline: as §1

ZFP SBS#1436 = molecular target: T16, ZFP SBS#1436 (synthetic, UniProt P08047)
T16 chain: T3 chain with R20T, S25A, R26S, H53N, T55A, T56R, Q78R, G80D, N81H, R83T
Outline: as §1

ZFP SBS#1399 = molecular target: T17, ZFP SBS#1399 (synthetic, UniProt P08047)
T17 chain: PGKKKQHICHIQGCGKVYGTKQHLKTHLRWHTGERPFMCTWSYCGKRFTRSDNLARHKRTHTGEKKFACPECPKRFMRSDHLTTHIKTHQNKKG
Outline: as §1

ZFP SBS#1412 = molecular target: T18, ZFP SBS#1412 (synthetic)
T18 chain: T1 chain with E23S, T25L
Outline: as §1

ZFP SBS#1434 = molecular target: T19, ZFP SBS#1434 (synthetic)
T19 chain: T1 chain with E23S, T25L, E50D, G52S, T53D, A55T
Outline: as §1

ZFP SBS#1423 = molecular target: T20, ZFP SBS#1423 (synthetic)
T20 chain: T1 chain with E50R, R51S, G52D, T53D, A55T, R56K, A81H, R83S, E84R
Outline: as §1

ZFP SBS#1422 = molecular target: T21, ZFP SBS#1422 (synthetic)
T21 chain: T3 chain with H23E, S25T, H53D, Q78R, G80D, N81H, R83S, T84R
Outline: as §1

ZFP SBS#1424 = molecular target: T22, ZFP SBS#1424 (synthetic)
T22 chain: T1 chain with T25R, R26E, E50D, G52S, T53H, A81N
Outline: as §1

ZFP SBS#1427 = molecular target: T23, ZFP SBS#1427 (synthetic)
T23 chain: T1 chain with E23D, T25R, R26E, E50D, G52S, T53H, A81N, R83T
Outline: as §1

ZFP SBS#1406 = ZFP SBS#1406 (synthetic)
Outline: as §1

ZFP SBS#1430 = molecular target: T24, ZFP SBS#1430 (synthetic)
T24 chain: T9 chain with R50D, A51R, D52S, A53D, M55T, V56R, N81D, A83T, R84K
Outline: as §1

ZFP SBS#1431 = molecular target: T25, ZFP SBS#1431 (synthetic)
T25 chain: T9 chain with R50D, A51R, D52S, A53D, M55T, V56R, N81D, R84S
Outline: as §1

ZFP SBS#1432 = molecular target: T26, ZFP SBS#1432 (synthetic)
T26 chain: T1 chain with R20E, S21R, D22G, E23T, T25A, A81D, R83T, E84K
Outline: as §1

Chain of ZFP SBS#1407 (synthetic) (chain, as listed by the source): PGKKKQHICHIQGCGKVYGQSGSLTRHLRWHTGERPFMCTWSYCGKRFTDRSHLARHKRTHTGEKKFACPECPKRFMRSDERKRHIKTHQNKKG
Chain of ZFP SBS#1440 (synthetic) (chain, as listed by the source): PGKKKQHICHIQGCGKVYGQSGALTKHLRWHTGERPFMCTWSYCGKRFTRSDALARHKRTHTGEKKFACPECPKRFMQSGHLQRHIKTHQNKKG
Chain of ZFP SBS#1441 (synthetic) (chain, as listed by the source): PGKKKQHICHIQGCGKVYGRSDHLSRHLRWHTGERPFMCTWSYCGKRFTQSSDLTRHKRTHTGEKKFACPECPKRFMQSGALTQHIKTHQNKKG
Chain of ZFP SBS#1439 (synthetic) (chain, as listed by the source): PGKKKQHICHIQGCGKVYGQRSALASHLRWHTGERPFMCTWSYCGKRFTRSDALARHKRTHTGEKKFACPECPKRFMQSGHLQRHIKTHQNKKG
Chain of ZFP SBS#1406 (synthetic) (chain, as listed by the source): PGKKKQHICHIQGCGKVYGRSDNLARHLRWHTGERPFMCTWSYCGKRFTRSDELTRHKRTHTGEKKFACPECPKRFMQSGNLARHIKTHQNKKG

B1: CTGGCCGCG (dsDNA)
DNA 1: CTGGCCGCG
DNA 2: CGCGGCCAG
- Kd (ZFP SBS#1414): 0.914 nM
- Kd (ZFP SBS#1413): 0.152 nM

B2: TAATGGGGG (dsDNA)
DNA 1: TAATGGGGG
DNA 2: CCCCCATTA
- Kd (ZFP SBS#1398): 0.065 nM
- Kd (ZFP SBS#1435): 0.057 nM

B3: CCGGCAGGG (dsDNA)
DNA 1: CCGGCAGGG
DNA 2: CCCTGCCGG
- Kd (ZFP SBS#1409): 0.153 nM
- Kd (ZFP SBS#1408): 0.305 nM

B4: CTGGAGTTG (dsDNA)
DNA 1: CTGGAGTTG
DNA 2: CAACTCCAG
- Kd (ZFP SBS#1402): 0.15 nM
- Kd (ZFP SBS#1418): 0.241 nM

B5: GGAGTGTTA (dsDNA)
DNA 1: GGAGTGTTA
DNA 2: TAACACTCC
- Kd (ZFP SBS#1439): 0.075 nM
- Kd (ZFP SBS#1440): 0.035 nM

B6: GAGTTGGCC (dsDNA)
DNA 1: GAGTTGGCC
DNA 2: GGCCAACTC
- Kd (ZFP SBS#1401): 0.167 nM
- Kd (ZFP SBS#1417): 1.4 nM

B7: ATAGCTGGG (dsDNA)
DNA 1: ATAGCTGGG
DNA 2: CCCAGCTAT
- Kd (ZFP SBS#1441): 0.262 nM

B8: GCGGGCGCA (dsDNA)
DNA 1: GCGGGCGCA
DNA 2: TGCGCCCGC
- Kd (ZFP SBS#1407): 0.585 nM

B9: CCGGCGGCG (dsDNA)
DNA 1: CCGGCGGCG
DNA 2: CGCCGCCGG
- Kd (ZFP SBS#1410): 0.814 nM

B10: GCGGCCGAG (dsDNA)
DNA 1: GCGGCCGAG
DNA 2: CTCGGCCGC
- Kd (ZFP SBS#1416): 0.153 nM
- Kd (ZFP SBS#1415): 0.102 nM

B11: TGAGGCGAG (dsDNA)
DNA 1: TGAGGCGAG
DNA 2: CTCGCCTCA
- Kd (ZFP SBS#1411): 0.282 nM
- Kd (ZFP SBS#1429): 0.074 nM
- Kd (ZFP SBS#1428): 0.102 nM

B12: GAGGCAGGG (dsDNA)
DNA 1: GAGGCAGGG
DNA 2: CCCTGCCTC
- Kd (ZFP SBS#1404): 0.022 nM
- Kd (ZFP SBS#1405): 0.045 nM

B13: TGGGAGTGT (dsDNA)
DNA 1: TGGGAGTGT
DNA 2: ACACTCCCA
- Kd (ZFP SBS#1436): 0.026 nM
- Kd (ZFP SBS#1399): 0.1 nM

B14: CTGGCCGTG (dsDNA)
DNA 1: CTGGCCGTG
DNA 2: CACGGCCAG
- Kd (ZFP SBS#1412): 0.172 nM
- Kd (ZFP SBS#1434): 0.051 nM

B15: GGGTCGGCG (dsDNA)
DNA 1: GGGTCGGCG
DNA 2: CGCCGACCC
- Kd (ZFP SBS#1423): 0.034 nM
- Kd (ZFP SBS#1422): 0.064 nM

B16: CAGGGCCCG (dsDNA)
DNA 1: CAGGGCCCG
DNA 2: CGGGCCCTG
- Kd (ZFP SBS#1424): 1.37 nM
- Kd (ZFP SBS#1427): 0.271 nM

B17: GAAGCGGAG (dsDNA)
DNA 1: GAAGCGGAG
DNA 2: CTCCGCTTC
- Kd (ZFP SBS#1406): 0.025 nM

B18: TCGGCCGCC (dsDNA)
DNA 1: TCGGCCGCC
DNA 2: GGCGGCCGA
- Kd (ZFP SBS#1430): 0.352 nM
- Kd (ZFP SBS#1431): 6.17 nM
- Kd (ZFP SBS#1432): 1.78 nM
